# According to patent US20240228562A1, “NOVEL LIPOCALIN MUTEINS SPECIFIC FOR CONNECTIVE TISSUE GROWTH FACTOR (CTGF)” (PIERIS PHARMACEUTICALS GMBH, priority 2021, published 2024):
# Substitutions are numbered along the chain they refer to.
# T1: Rat CTGF (Rattus norvegicus, UniProt Q9R1E9)
# T1 construct: purchased R&D Systems
# T1 sequence (Q9R1E9 25-347): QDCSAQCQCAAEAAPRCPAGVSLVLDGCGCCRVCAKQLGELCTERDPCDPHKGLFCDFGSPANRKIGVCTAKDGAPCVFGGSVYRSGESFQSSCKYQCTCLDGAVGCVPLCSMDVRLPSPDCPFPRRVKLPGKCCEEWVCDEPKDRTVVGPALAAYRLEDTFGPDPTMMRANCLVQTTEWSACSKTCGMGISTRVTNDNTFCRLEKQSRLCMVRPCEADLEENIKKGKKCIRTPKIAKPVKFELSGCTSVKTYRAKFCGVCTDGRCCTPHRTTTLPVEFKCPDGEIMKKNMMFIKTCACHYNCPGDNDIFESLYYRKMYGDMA
# T2: CTGF (Homo sapiens, UniProt P29279)
# T2 sequence (P29279 27-349): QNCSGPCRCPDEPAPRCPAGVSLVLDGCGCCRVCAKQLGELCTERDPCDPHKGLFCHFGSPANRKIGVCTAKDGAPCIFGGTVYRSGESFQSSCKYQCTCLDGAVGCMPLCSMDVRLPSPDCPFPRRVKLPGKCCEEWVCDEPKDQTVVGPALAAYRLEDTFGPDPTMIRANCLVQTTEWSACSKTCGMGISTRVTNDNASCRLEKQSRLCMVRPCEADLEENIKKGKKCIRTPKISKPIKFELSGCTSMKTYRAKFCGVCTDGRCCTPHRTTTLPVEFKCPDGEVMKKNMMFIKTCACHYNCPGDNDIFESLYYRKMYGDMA
# T3: huNOV (Homo sapiens, UniProt P48745)
# T3 sequence (P48745 32-357): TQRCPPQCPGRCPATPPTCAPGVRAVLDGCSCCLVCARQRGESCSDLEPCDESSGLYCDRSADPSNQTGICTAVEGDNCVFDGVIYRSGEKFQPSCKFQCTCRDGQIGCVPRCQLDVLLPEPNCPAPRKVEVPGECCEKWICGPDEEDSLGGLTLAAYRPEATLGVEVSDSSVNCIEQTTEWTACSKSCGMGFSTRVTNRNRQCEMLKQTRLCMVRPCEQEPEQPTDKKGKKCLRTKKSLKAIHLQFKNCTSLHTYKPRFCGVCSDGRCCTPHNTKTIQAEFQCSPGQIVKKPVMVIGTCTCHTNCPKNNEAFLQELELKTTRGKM
# T4: huWISP-3 (Homo sapiens, UniProt O95389)
# T4 sequence (O95389 24-354): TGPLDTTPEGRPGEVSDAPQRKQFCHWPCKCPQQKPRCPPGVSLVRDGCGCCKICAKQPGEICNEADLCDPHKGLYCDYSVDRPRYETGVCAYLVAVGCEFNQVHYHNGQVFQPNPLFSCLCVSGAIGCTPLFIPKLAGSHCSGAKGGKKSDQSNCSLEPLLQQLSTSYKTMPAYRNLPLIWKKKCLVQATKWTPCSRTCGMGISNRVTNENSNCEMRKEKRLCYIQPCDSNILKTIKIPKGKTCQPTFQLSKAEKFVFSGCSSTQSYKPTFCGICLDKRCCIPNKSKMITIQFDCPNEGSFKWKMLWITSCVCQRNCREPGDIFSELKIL
# B1: SEQ ID NO: 15: optimized CTGF-binding hNGAL lipocalin mutein (protein)
# chain: QDSTSDLIPAPPLSKVPLQQNFQDNQFQGKWYVVGLAGNAILREDKQPAKMFATIYELKEDKSYDVTSVRFEAKSCKYTIKTFVPGSQPGEFTAGYIKSAPGQTSTLVRVVSTNYNQHAMVFFKHVTQNREIFVITLYGRTKELTSELKENFIRFSKSLGLPENHIVFPVPIDQCIDG
# modifications: lipocalin mutein
# B2: SEQ ID NO: 9: parent CTGF-binding hNGAL lipocalin mutein (protein)
# chain: B1 chain with Q28H, A40K, E44I, K74R, K77S, Y96N, T127S, I132T
# modifications: lipocalin mutein
# B3: SEQ ID NO: 7: parent CTGF-binding hNGAL lipocalin mutein (protein)
# chain: QDSTSDLIPAPPLSKVPLQQNFQDNQFHGKWYVVGLAGNYGLRTDKRPSKMFATIYELKEDKSYDVTSVRFEQERCHYTIRTFVPGSQPGEFTTGSIKSRPGQTSSLVRVVSTNYNQHAMVFFKSVIQNREYFAITLYGRTKELTSELKENFIRFSKSLGLPENHIVFPVPIDQCIDG
# modifications: lipocalin mutein
# B4: SEQ ID NO: 29: parent CTGF-binding hNGAL lipocalin mutein (protein)
# chain: QDSTSDLIPAPPLSKVPLQQNFQDNQFHGKWYVVGWAGNIKLREDKDPFKMSATIYELKEDKSYNVTEVVFEQKKCHYIIKTFVPGSQPGEFTLGDIKSPPGETSSLVRVVSTNYNQHAMVFFKKVFQNREFFWITLYGRTKELTSELKENFIRFSKSLGLPENHIVFPVPIDQCIDG
# modifications: lipocalin mutein
# B5: SEQ ID NO: 25: parent CTGF-binding hNGAL lipocalin mutein (protein)
# chain: QDSTSDLIPAPPLSKVPLQQNFQDNQFHGKWYVVGMAGNFRLREDKDPSKMGATIYELKEDKSYNVTQVQFDDKKCLYVIETFVPGSQPGEFTLGAIKSFPGFTSQLVRVVSTNYNQHAMVFFKKVYQNREVFWITLYGRTKELTSELKENFIRFSKSLGLPENHIVFPVPIDQCIDG
# modifications: lipocalin mutein
# B6: SEQ ID NO: 3: parent CTGF-binding hNGAL lipocalin mutein (protein)
# chain: QDSTSDLIPAPPLSKVPLQQNFQDNQFHGKWYVVGRAGNNRLREDKDPPKMWATIYELKEDKSYNVTHVHFMTKKCRYIIDTFVPGSQPGEFTLGAIKSGPGMTSPLVRIVSTNYNQHAMVFFKWVNQNREWFTITLYGRTKELTSELKENFIRFSKSLGLPENHIVFPVPIDQCIDG
# modifications: lipocalin mutein
# B7: SEQ ID NO: 23: optimized CTGF-binding hNGAL lipocalin mutein (protein)
# chain: B1 chain with L36V, E44P, A94S, Y96Q, T127S
# modifications: lipocalin mutein
# B8: SEQ ID NO: 74: fusion protein comprising two CTGF-binding lipocalin muteins (protein)
# chain: QDSTSDLIPAPPLSKVPLQQNFQDNQFQGKWYVVGLAGNAILREDKQPAKMFATIYELKEDKSYDVTSVRFEAKSCKYTIKTFVPGSQPGEFTAGYIKSAPGQTSTLVRVVSTNYNQHAMVFFKHVTQNREIFVITLYGRTKELTSELKENFIRFSKSLGLPENHIVFPVPIDQCIDGGGGGSGGGGSGGGGSQDSTSDLIPAPPLSKVPLQQNFQDNQFQGKWYVVGWAGNVKLREDKQPQKMSATIYELKEDKSYDVTEVVFEQKKCHYIIKTFVPGSQPGEFTAGDIKSPPGYTSSLVRVVSTNYNQHAMVFFKKVSQNREFFWITLYGRTKELTSELKENFIRFSKSLGLPENHIVFPVPIDQCIDG
# modifications: fusion protein
# Target: T1, Rat CTGF
# Assay: SPR binding kinetics and affinity, rat CTGF
# Conditions: 25° C., 1:1 binding model
# Summary of the method: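 Targets either amine-coupled to CM5 chip (300–1100 RU; Fc-tagged human, untagged rat/murine) or Fc-captured via anti-human IgG; muteins injected 180 s contact, 900–3600 s dissociation, 30 μL/min, 25° C. Double-referenced sensorgrams fit to 1:1 model giving kon, koff and KD.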
Rat CTGF koff [s⁻¹],Rat CTGF kon [M⁻¹ s⁻¹],Kd [nM],Molecule
0.000114,120000,,B1
0.00169,105000,16,B2
0.00754,120000,62.8,B3
0.00317,176000,18,B4
0.00129,46500,27.7,B5
0.0117,297000,39.3,B6

# Target: T2, CTGF
# Assay: Specificity ELISA (CCN proteins), human CTGF
# Assay type: binding
# Conditions: coated 1 μg/ml, muteins from 1000 nM
# Description: (§1) Binding of muteins to closely related proteins of CTGF was tested by an ELISA assay. In detail, a 384-well plate suitable for fluorescence measurements (Greiner FLUOTRAC™ 600, black flat bottom, high-binding) was coated with 20 μl of human CTGF or the other members of the CCN protein family at a concentration of 1 μg/ml in PBS over night at 4° C. After washing with PBS with 0.05% Tween 20, wells were blocked with 100 μl blocking buffer containing 0.1% Tween 20 and 2% BSA (PBS-T/BSA) for 1 h at room temperature. 20 μl of serially diluted muteins starting at 1000 nM were incubated in PBS-T/BSA for 1 h at room temperature (RT).
# (§2) The residual supernatants were discarded and 20 μl HRP-labeled anti-NGAL or anti-Strep-Tag antibody was added at a predetermined optimal concentration in PBS-T/BSA and incubated for 1 h at RT. After washing, 20 μl fluorogenic HRP substrate (QuantaBlu, Thermo) was added to each well, and the reaction was allowed to proceed for 2 to 60 minutes. The fluorescence intensity of every well on the plate was read using a fluorescence microplate reader (Tecan). When the signal for human CTGF approached saturation, the cross reactivity to the other proteins was assessed.
row,ELISA binding to HUMAN CTGF,Molecule
1,Binding,B7
2,Binding,B1
3,Binding,B2
4,Binding,B3
5,Binding,B4
6,Binding,B5
7,Binding,B6
8,Binding,B8

# Target: T3, huNOV
# Assay: Specificity ELISA (CCN proteins), huNOV
# Assay type: binding
# Conditions: coated 1 μg/ml; assessed when human CTGF signal approached saturation
# Description: as §1, §2
row,ELISA binding to huNOV,Molecule
1,No binding,B7
2,No binding,B1
3,No binding,B2
4,No binding,B3
5,No binding,B4
6,No binding,B5
7,No binding,B6
8,No binding,B8

# Target: T4, huWISP-3
# Assay: Specificity ELISA (CCN proteins), huWISP-3
# Assay type: binding
# Conditions: coated 1 μg/ml; assessed when human CTGF signal approached saturation
# Description: as §1, §2
row,ELISA binding to huWISP-3,Molecule
1,No binding,B7
2,No binding,B1
3,No binding,B2
4,No binding,B3
5,No binding,B4
6,No binding,B5
7,No binding,B6
8,No binding,B8
